Test results published in publication PMC9723616.

T1: FemX (UniProt Q9EY50 1-336)
T1 sequence: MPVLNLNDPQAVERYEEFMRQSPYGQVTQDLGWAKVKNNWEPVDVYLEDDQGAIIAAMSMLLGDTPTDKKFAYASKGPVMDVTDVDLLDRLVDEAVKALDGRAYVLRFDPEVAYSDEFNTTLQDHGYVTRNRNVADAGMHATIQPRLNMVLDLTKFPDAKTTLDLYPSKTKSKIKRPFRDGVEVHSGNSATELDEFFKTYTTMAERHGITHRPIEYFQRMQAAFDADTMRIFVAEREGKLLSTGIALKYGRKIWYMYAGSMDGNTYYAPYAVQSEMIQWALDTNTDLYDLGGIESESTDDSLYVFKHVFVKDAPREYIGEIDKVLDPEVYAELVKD

B1: compound 17 (2'F-RNA stem peptidyl-helix, 24 nt) (XNA)
RNA: GGGGCCUUAGCUCAGGCUCCACCA
modifications: 2'F-RNA in stem (14 F); dC at penultimate position (pdCpA); 2'-azido-2'-deoxy A76 joined by triazole to UDP-MurNAc-pentapeptide
B2: compound 20 (2'F-ANA stem peptidyl-helix, 24 nt) (XNA)
RNA: GGGGCCUUAGCUCAGGCUCCACCA
modifications: 2'F-ANA in stem (14 F); dC at penultimate position (pdCpA); 2'-azido-2'-deoxy A76 joined by triazole to UDP-MurNAc-pentapeptide

Target: T1, FemX
Test: competition

| Binder | Ki |
| --- | --- |
| B1 | 0.397 ± 0.107 nM |
| B2 | 221 ± 10 nM |
